pKd: −log10 of the molar value.
Molecular target: GmPUB13(252-630) (soybean (Glycine max))
Assay: ITC

- pKd: 7.05
Substance: Avr1d (purified protein for ITC and gel filtration) (natural protein)

Source: publication PMC7958378
